Consider two molecules from patent publication US20030084477, “Genes enhancing disease resistance in plants” (published 2003).

Data set [1] addresses T1, GST-Pti5 (Solanum lycopersicum, UniProt O04681 O04681:1-161). The data set is described as follows: EMSA; 25 mM Hepes pH 7.5, 40 mM KCl, 0.1 mM EDTA, 10% glycerol, 1 mM DTT, poly(dA-dT), room temp; WT sequence printed with stray 'to' in the middle. The settings on record: tags: N-terminal GST (pGEX, E. coli PR745; cDNA nt 82-782); label: 32P end label. How it is done: (§1) The wild type gln2 PR-box 2x ([…] to […]) and mutated PR-box 2x ([…]) were end-labeled by 32P as described by Ausubel, F. M., Brent, R., Kingston, R. E., Moore, D. D., Seidman, J. G., Smith, J. A., and Struhl, K. (1994). Current Protocols in Molecular Biology. (New York: Greene Publish Associates/John Wiley and Sons). Four fmol of probe was mixed with each of the purified GST-fusion proteins in a buffer containing 2 μg poly(dA-dT) (dA-dT), 25 mM Hepes (PH7.5), 40 mM KCl, 0.1 mM EDTA, 10% glycerol, and 1 mM DTT, incubated at room temperature for 15 minutes, and electrophoresed on a 4% polyacrylamide gel in 0.25×TBE buffer. Ohme-Takagi, M. and Shinshi, H. (1995). Ethylene-inducible DNA-binding proteins that interact with an ethylene-responsive element. Plant Cell 7, 173-182. The gel was subsequently dried and exposed to x-ray film. […] In contrast to GST-Pti5 and GST-Pti6, neither GST-Ptil nor GST itself bound to the PR-box.
In general terms: A gel shift assay detects complexes by their altered migration in electrophoresis.

For data set [2], the target named is T1, GST-Pti5. The data set is described as follows: EMSA; no binding detected. The settings on record: tags: N-terminal GST (pGEX, E. coli PR745; cDNA nt 82-782); label: 32P end label. How it is done: as §1

T1 sequence (O04681 whole entry, the tested form may be a part, one chain of several): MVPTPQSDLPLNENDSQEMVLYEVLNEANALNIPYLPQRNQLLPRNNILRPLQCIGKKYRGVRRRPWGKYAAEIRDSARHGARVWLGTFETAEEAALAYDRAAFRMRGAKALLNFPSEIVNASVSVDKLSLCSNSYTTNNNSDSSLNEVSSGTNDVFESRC

B1: wild type gln2 PR-box 2x (dsDNA)
DNA 1: CATAAGAGCCGCCACTAAAATAAGACCGATCAAATAAGAGCCGCCAT
DNA 2: ATGGCGGCTCTTATTTGATCGGTCTTATTTTAGTGGCGGCTCTTATG
With B1, the binding result in the data set with GST-Pti5 [1] is “binds”.

B2: mutated PR-box 2x (dsDNA)
DNA 1: CATAAGATCCTCCACTAAAATAAGACCGATCAAATAAGATCCTCCAT
DNA 2: ATGGAGGATCTTATTTGATCGGTCTTATTTTAGTGGAGGATCTTATG
Turning to B2, the binding result with GST-Pti5 [2] is reported as “no binding”.
